B1: Kinesin-like protein KIF17 (Homo sapiens), Q9P2E2 (parent)
chain: MASEAVKVVVRCRPMNQRERELRCQPVVTVDCARAQCCIQNPGAADEPPKQFTFDGAYHVDHVTEQIYNEIAYPLVEGVTEGYNGTIFAYGQTGSGKSFTMQGLPDPPSQRGIIPRAFEHVFESVQCAENTKFLVRASYLEIYNEDVRDLLGADTKQKLELKEHPEKGVYVKGLSMHTVHSVAQCEHIMETGWKNRSVGYTLMNKDSSRSHSIFTISIEMSAVDERGKDHLRAGKLNLVDLAGSERQSKTGATGERLKEATKINLSLSALGNVISALVDGRCKHVPYRDSKLTRLLQDSLGGNTKTLMVACLSPADNNYDETLSTLRYANRAKNIRNKPRINEDPKDALLREYQEEIKKLKAILTQQMSPSSLSALLSRQVPPDPVQVEEKLLPQPVIQHDVEAEKQLIREEYEERLARLKADYKAEQESRARLEEDITAMRNSYDVRLSTLEENLRKETEAVLQVGVLYKAEVMSRAEFASSAEYPPAFQYETVVKPKVFSTTDTLPSDDVSKTQVSSRFAELPKVEPSKSEISLGSSESSSLEETSVSEAFPGPEEPSNVEVSMPTEESRSRYFLDECLGQEAAGHLLGEQNYLPQEEPQEVPLQGLLGLQDPFAEVEAKLARLSSTVARTDAPQADVPKVPVQVPAPTDLLEPSDARPEAEAADDFPPRPEVDLASEVALEVVRTAEPGVWLEAQAPVALVAQPEPLPATAGVKRESVGMEVAVLTDDPLPVVDQQQVLARLQLLEQQVVGGEQAKNKDLKEKHKRRKRYADERRKQLVAALQNSDEDSGDWVLLNVYDSIQEEVRAKSKLLEKMQRKLRAAEVEIKDLQSEFQLEKIDYLATIRRQERDSMLLQQLLEQVQPLIRRDCNYSNLEKILRESCWDEDNGFWKIPHPVITKTSLPVAVSTGPQNKPARKTSAADNGEPNMEDDRYRLMLSRSNSENIASNYFRSKRASQILSTDARKSLTHHNSPPGLSCPLSNNSAIPPTQAPEMPQPRPFRLESLDIPFTKAKRKKSKSNFGSEPL

Variants of: B1
Details: with tnpo1_human TNPO1, Q92973
Chain of tnpo1_human TNPO1, Q92973 (Q92973 whole entry): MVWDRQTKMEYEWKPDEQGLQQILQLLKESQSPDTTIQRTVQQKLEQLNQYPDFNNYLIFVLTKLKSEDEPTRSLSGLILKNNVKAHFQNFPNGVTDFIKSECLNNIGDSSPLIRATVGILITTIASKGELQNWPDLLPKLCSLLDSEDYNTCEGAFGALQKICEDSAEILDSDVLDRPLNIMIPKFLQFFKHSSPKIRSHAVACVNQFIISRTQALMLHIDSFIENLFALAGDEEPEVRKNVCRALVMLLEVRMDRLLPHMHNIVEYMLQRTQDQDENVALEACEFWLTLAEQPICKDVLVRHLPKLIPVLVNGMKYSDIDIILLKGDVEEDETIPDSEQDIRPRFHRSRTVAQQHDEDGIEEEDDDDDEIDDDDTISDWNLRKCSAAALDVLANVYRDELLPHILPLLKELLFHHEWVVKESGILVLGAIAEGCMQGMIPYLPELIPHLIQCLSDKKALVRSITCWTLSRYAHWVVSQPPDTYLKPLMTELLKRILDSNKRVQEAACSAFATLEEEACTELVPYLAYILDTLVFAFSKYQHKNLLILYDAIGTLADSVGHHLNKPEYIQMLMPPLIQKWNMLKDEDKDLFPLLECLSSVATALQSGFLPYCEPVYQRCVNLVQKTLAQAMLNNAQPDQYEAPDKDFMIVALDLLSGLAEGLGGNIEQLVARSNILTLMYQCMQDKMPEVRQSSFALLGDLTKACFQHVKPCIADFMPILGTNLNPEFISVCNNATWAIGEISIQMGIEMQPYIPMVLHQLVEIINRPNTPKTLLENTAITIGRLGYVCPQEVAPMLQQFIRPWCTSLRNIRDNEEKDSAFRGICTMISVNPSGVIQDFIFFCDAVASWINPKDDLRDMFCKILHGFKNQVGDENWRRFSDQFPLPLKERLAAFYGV

| effect of a mutation on the interaction | Variant |
| --- | --- |
| disrupting interaction strength | K1016A;R1017A;K1018A;K1019A |

From IntAct's records for PubMed 20526328
